The source of these data is patent US20110217237A1 (AbbVie / Abbott, published 2011).

Experiment [1] addresses T1, human DLL4 extracellular domain (human, UniProt Q9NR61 27-529).
T1 construct: purified recombinant ECD; biotin-labelled or 6xHis-tagged depending on the assay; also called huDLL4 ECD; hu DLL4 ECD
Briefly: SPR (Biacore). As for the experimental part:
(§1) The BIACORE® surface plasmon resonance assay (Biacore, Inc., Piscataway, N.J., US) determines the affinity of antibodies with kinetic measurements of on-rate and off-rate constants. Binding of DLL4 antibodies to a purified recombinant DLL4 extracellular domain (ECD) was determined by surface plasmon resonance-based measurements with a Biacore® instrument (either a Biacore 2000, Biacore 3000, or Biacore T100; GE Healthcare, Piscataway, N.J., US) using running buffer HBS-EPB (10 mM HEPES [pH 7.4], 150 mM NaCl, 3 mM EDTA, 0.1 mg/ml BSA and 0.005% surfactant P20) at 25° C. For example, approximately 9000 RU of goat anti-human Fc specific polyclonal antibody (Thermo Fisher Scientific Inc., Rockford, Ill., US) diluted in 10 mM sodium acetate (pH 4.5) is directly immobilized across a CMS research grade biosensor chip using a standard amine coupling kit according to manufacturer's instructions and procedures at 25 μg/ml. Unreacted moieties on the biosensor surface were blocked with ethanolamine. For kinetic analysis, rate equations derived from the 1:1 Langmuir binding model were fitted simultaneously to multiple antigen injections (using global fit analysis) with the use of Scrubber 2 (BioLogic Software), Biacore Biaevaluation 4.0.1 software or Biacore T100 Evaluation software. Purified antibodies were diluted in running buffer for capture across goat anti-human Fc reaction surfaces. Antibodies to be captured as a ligand (1 μg/ml) were injected over reaction matrices at a flow rate of 10 μl/min. During the assay, all measurements were referenced against the capture surface alone (i.e., with no captured anti-DLL4 antibody). […] The equilibrium dissociation constant KD (M) of the reaction between antibodies and the target antigen was then calculated from the kinetic rate constants by the following formula: KD=Koff/Kₒₙ. Binding was recorded as a function of time and kinetic rate constants were calculated.

In experiment [2] the target is T2, cynomolgus monkey DLL4 extracellular domain (cynomolgus monkey).
T2 construct: extracellular domain; also called cynoDLL4 ECD; Cyno DLL4
The experiment can be described thus: SPR (Biacore). As for the experimental part:
as §1
(In SPR one partner is held on a chip, and binding of the other changes the refractive index at the surface.)

For experiment [3], the target named is T3, rat DLL4 extracellular domain (rat, UniProt D3ZHH1 28-530).
T3 construct: extracellular domain; also called ratDLL4 ECD
T3 sequence (D3ZHH1 28-530): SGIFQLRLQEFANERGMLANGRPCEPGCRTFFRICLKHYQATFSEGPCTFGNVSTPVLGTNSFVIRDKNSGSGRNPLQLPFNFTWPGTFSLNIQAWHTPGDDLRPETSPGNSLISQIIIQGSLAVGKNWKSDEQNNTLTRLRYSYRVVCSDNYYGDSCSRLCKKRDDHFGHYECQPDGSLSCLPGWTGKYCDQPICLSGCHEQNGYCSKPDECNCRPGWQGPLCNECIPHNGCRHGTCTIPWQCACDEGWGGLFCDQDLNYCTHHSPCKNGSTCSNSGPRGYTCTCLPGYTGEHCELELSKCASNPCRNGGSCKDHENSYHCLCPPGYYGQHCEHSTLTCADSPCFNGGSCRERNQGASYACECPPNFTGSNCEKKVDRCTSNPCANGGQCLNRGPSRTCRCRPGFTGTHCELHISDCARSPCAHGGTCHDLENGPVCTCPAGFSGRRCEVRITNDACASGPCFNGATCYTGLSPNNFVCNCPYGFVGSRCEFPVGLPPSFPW
The experiment can be described thus: SPR (Biacore). The method, then: as §1

Experiment [4] concerns the target T4, human DLL4, full length, on cells (human, UniProt Q9NR61 27-685). The experiment can be described thus: cell-based or functional assay.
Experiment [5] concerns the target T5, mouse DLL4 on cells (mouse, UniProt Q9JI71 27-686). Briefly: cell-based or functional assay.
Experiment [6] has as its target T4, human DLL4, full length, on cells. The experiment can be described thus: FACS, direct binding to DLL4 cells. As for the experimental part:
(§2) Stable cell lines overexpressing cell-surface DLL4 were harvested from tissue culture flasks, washed four times and resuspended in phosphate buffered saline (PBS) containing 1% bovine serum albumin and 1 mM CaCl₂ (FACS buffer). 1.5×10⁵ cells were incubated with antibodies at various concentrations in FACS buffer for 60 minutes on ice. […] Following an incubation on ice (4° C., 60 minutes), cells were washed three times and resuspended in FACS buffer. Fluorescence was measured using a Becton Dickinson FACSCalibur-HTS (Becton Dickinson, San Jose, Calif., US). Data were analyzed using Graphpad Prism software and EC₅₀ values were reported as the concentration of antibody to achieve 50% of maximal DLL4 antibodies binding to DLL4 expressing cells.
(§3) The hu1A11.1 affinity matured clones (Table 22) were expressed, purified, and further characterized in vitro. Their activities of binding to cell-bound DLL4 and inhibiting cell-bound DLL4-induced Notch activation were further examined using methods described in Examples 1.3 and 1.6, and are summarized in Table 26 (below).

In experiment [7] the target is T5, mouse DLL4 on cells. Briefly: FACS, direct binding to DLL4 cells. As for the experimental part: as §2, §3
For orientation: A flow cytometer gives signals particle by particle.

Experiment [8] addresses T1, human DLL4 extracellular domain. Briefly: SPR (Biacore). As for the experimental part:
as §1, with “Binding” for “The BIACORE® surface plasmon resonance assay (Biacore, Inc., Piscataway, N.J., US) determines the affinity of antibodies with kinetic measurements of on-rate and off-rate constants. Binding”, “calculated. In this assay, on-rates as fast as 10⁶ M⁻¹s⁻¹ and off-rates as slow as 10⁻⁶ s⁻¹ could be measured.” for “calculated.”
The good binder variants, as determined by binding ELISA, were assessed by Biacore (Example 1.1) concurrently with cell based assay screens.
This is another data set of the same source.

Experiment [9] addresses T4, human DLL4, full length, on cells. The experiment can be described thus: FACS, DLL4 cells. As for the experimental part:
as §2
The good binder variants, as determined by binding ELISA, were assessed by Biacore (Example 1.1) concurrently with cell based assay screens. The KD for human DLL4 was similar for all variants (see, Biacore, KD in Table 18, below).

Experiment [10] shares this target. The experiment can be described thus: cell-based or functional assay. The source holds these as a separate data set.
Experiment [11] has as its target T1, human DLL4 extracellular domain. The experiment can be described thus: competition ELISA vs Notch-1 Fc. As for the experimental part:
Plates were then washed 3 times with wash buffer (PBS, 0.05% Tween-20) and blocked with 200 μl/well blocking buffer (D-PBS, 1% BSA, 1 mM CaCl₂, 0.05% Tween-20) for 1 hour at 25° C. While blocking, biotin labeled DLL4 extracellular domain (14 nM) was mixed with antibody (30 pM-66 nM, 3-fold serial dilution in blocking buffer) for 1 hour at 25° C. with shaking. Assay plates were washed after blocking, and incubated with DLL4/antibody mixtures (100 μl/well, 1 hour at 25° C. with shaking). Plates were washed again and 100 μl/well streptavidin conjugated with HRP (Fitzgerald #65R-S104PHRPx, diluted 1:5,000 in blocking buffer) was added for 1 hour at 25° C. with shaking. After a final wash, plates were developed using 100 μl/well substrate (TMB Sigma #T8665), and the reaction was stopped using 100 μl/well 1N HCl, and the absorbance was read at 450 nm. Data were analyzed using Graphpad Prism software and IC₅₀ values were reported as the concentration of antibody to achieve 50% reduction of DLL4 bound to Notch1.
Purified variants were further characterized in human Notch-1 competition ELISAs (Example 1.4), which used a format of plating Notch-1 Fc onto ELISA plates and pre-incubating biotinylated human DLL4 plus titrated antibody. Signal was assessed by free biotinylated DLL4 binding to Notch-1 Fc.
(ELISA stands for enzyme-linked immunosorbent assay.)

For experiment [12] the target is unchanged. The experiment can be described thus: capture ELISA, biotin-huDLL4 ECD.

Residue numbers refer to the chain shown, from its start. Read-outs that look alike come from different tables or passages of the source.

T4 sequence (Q9NR61 27-685 limits assumed): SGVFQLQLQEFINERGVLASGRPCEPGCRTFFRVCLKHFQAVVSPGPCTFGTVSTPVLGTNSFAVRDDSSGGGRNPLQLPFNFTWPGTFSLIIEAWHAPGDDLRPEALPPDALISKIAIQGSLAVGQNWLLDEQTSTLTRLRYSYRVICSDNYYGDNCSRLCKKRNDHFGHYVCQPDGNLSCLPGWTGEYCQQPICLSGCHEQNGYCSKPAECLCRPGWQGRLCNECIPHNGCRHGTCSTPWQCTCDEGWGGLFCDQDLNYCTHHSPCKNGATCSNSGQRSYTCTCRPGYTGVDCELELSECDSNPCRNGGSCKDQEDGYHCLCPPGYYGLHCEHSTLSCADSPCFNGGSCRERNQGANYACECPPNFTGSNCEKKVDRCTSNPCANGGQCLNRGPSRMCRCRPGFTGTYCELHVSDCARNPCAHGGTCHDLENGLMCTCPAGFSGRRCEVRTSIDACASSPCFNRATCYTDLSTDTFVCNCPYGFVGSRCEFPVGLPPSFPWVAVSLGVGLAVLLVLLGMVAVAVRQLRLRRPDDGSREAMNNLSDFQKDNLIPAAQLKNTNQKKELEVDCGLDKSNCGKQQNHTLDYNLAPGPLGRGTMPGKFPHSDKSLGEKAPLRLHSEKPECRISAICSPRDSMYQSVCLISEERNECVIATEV
T5 sequence (Q9JI71 27-686): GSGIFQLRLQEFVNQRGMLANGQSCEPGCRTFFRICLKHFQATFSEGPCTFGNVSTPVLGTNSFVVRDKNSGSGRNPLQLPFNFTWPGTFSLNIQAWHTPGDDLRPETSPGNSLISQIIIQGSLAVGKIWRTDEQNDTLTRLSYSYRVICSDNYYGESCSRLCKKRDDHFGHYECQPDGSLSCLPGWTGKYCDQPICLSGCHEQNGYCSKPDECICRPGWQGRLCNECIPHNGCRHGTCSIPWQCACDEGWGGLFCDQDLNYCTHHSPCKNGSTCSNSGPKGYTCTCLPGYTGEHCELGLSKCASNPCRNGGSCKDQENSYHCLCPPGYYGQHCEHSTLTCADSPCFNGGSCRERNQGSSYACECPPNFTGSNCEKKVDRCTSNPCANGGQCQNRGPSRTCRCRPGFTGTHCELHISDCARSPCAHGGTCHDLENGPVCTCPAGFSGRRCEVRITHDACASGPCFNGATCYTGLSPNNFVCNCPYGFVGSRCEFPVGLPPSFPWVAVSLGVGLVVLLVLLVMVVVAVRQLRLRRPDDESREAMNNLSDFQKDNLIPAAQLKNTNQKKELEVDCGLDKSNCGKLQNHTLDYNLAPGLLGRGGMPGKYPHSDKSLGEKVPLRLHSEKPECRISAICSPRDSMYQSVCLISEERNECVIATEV
T1 sequence (Q9NR61 27-529 limits assumed): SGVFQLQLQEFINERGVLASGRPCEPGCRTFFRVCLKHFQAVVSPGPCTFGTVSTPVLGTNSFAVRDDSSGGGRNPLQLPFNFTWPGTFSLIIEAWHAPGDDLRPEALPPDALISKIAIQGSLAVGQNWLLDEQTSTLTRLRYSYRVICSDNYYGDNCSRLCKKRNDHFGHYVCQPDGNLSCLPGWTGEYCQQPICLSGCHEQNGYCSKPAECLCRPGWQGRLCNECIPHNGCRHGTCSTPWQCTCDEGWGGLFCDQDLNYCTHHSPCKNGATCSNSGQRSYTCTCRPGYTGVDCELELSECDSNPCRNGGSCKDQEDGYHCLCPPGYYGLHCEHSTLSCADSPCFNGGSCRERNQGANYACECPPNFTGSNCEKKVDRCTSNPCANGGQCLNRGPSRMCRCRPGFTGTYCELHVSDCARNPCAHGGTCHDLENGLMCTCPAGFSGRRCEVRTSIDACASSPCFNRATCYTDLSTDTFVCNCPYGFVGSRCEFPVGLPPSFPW

B1: h1A11.A7 (antibody, V domains shown)
VH: EVQLVESGGGLVQPGGSLRLSCAASGFTFSNFPMAWVRQAPGKGLEWVATISSSDGTTYYRDSVKGRFTISRDNAKNSLYLQMNSLRAEDTAVYYCARGYYNSPFAYWGQGTLVTVSS
VL: DIQMTQSPSSLSASVGDRVTITCRASQDIYINLAWYQQKPGKAPKLLIFDTSDLADGVPSRFSGSGSGTDFTLTISSLQPEDFATYYCQQYDYYPPTFGQGTKLEIK
notes: also called h1A11VH.1 / h1A11.A7 VL
The Kd is the concentration at which binding is half-saturated. As a reminder, the koff is the rate constant with which the complex falls apart. The term kon denotes a measure of how fast the partners come together. A word on the EC50: it is the concentration that produces a half-maximal response. Take B1: the Kd in [1] stood at 5.7 nM; in [2], 7.8 nM. For the same molecule, the koff in experiment [1] turned out to be 0.000973 s⁻¹; in [2], 0.00124 s⁻¹. Moreover, the on-rate (kon) in experiment [1] came out at 170000 M⁻¹ s⁻¹; in [2], 158000 M⁻¹ s⁻¹. Also, the binding result in experiment [3] was “no binding”. Besides, the “Inhibition of Notch Activation via DLL4 cells, Notch reporter assay” value in experiment [4] turned out to be 2.92 nM; in the experiment with mouse DLL4 on cells [5] it was 1.79 nM. The EC50 in experiment [6] is 2.17 nM; with mouse DLL4 on cells [7], 0.625 nM.

B2: h1A11.A12 (antibody, V domains shown)
VH: B1 VH
VL: B1 VL with I31Y, A43S, D53S, Y87F, Y93W
notes: also called h1A11VH.1 / h1A11.A12 VL
In the case of B2, the Kd is 7.6 nM in experiment [1] and 10 nM in experiment [2]. For the same molecule, the koff in [1] stood at 0.00132 s⁻¹; in experiment [2] it was 0.00162 s⁻¹. For the same molecule, the values for the kon in [1] and in [2] were 173000 M⁻¹ s⁻¹ and 158000 M⁻¹ s⁻¹, respectively. In experiment [3], the binding result is “no binding”. Besides, the “Inhibition of Notch Activation via DLL4 cells, Notch reporter assay” value in [4] was 1.66 nM; with mouse DLL4 on cells [5], 0.832 nM. Moreover, the EC50 was found to be 1.77 nM in [6] and 0.568 nM with mouse DLL4 on cells [7].

B3: h38H12.15 (antibody, V domains shown)
VH: EVQLVESGGGLVQPGGSLRLSCAASGFTFSNYGMYWIRQAPGKGLEWVAFISHGGGITYYRDSVKGRFTISRDNSKSTLYLQMNSLRAEDTAVYHCAALNWELGIDYWGQGTMVTVSS
VL: DIQMTQSPSSLSASVGDRVTITCRASEDIYSNLAWYQQKPGKAPKLLIYAANRLQDGVPSRFSGSGSGTDYTLTISSLQPEDFATYYCLQGSKFPLTFGQGTKLEIKR
notes: humanized IgG; also called VH.2a/VL.1b 38H12
B3 yielded a Kd in [8] of 0.355 nM. In addition, the concentration for a half-maximal effect (EC50) in experiment [9] came to 2.37 nM; in experiment [11], 5.71 nM; in experiment [12], 0.0904 nM. For the same molecule, the “Notch Reporter Assay EC50” value in experiment [10] was 0.837 nM.

B4: h38H12.7 (antibody, V domains shown)
VH: B3 VH with L11V, G16R
VL: B3 VL
notes: humanized IgG; also called VH.1a/VL.1b 38H12
B4: in experiment [8], binding was put at a Kd of 0.34 nM. The figures for the EC50 in [9], in experiment [11] and in experiment [12] were 19.1 nM, 12.5 nM and 0.18 nM, respectively. In addition, in experiment [10], the “Notch Reporter Assay EC50” value was 2.6 nM.

B5: h38H12.12 (antibody, V domains shown)
VH: B3 VH with L11V, G16R, I37V, S77N, H95Y
VL: EIVMTQSPATLSVSPGERATLSCRASEDIYSNLAWYQKKPGQSPRLLIYAANRLQDGVPARFSGSGSGTEYTLTISSLQSEDFAVYFCLQGSKFPLTFGQGTKLEIKR
notes: humanized IgG; also called VH.1b/VL.2a 38H12
In [8], B5 displayed an equilibrium dissociation constant (Kd) of 0.819 nM. Further, the results for the concentration giving a half-maximal response (EC50) in experiment [9], in [11] and in [12] were 1.48 nM, 3.23 nM and 0.165 nM, respectively. In experiment [10], the “Notch Reporter Assay EC50” value turned out to be 1.06 nM.

B6: h38H12.8 (antibody, V domains shown)
VH: B3 VH with L11V, G16R
VL: B5 VL
notes: humanized IgG; also called VH.1a/VL.2a 38H12
In experiment [8], B6 displayed a dissociation constant (Kd) of 0.397 nM. Moreover, the EC50 in [9] is 20 nM; in experiment [11] it was 8.31 nM; in experiment [12] it was 0.197 nM. In addition, the “Notch Reporter Assay EC50” value in [10] worked out at 5.56 nM.

B7: h38H12.16 (antibody, V domains shown)
VH: B3 VH
VL: B5 VL
notes: humanized IgG; also called VH.2a/VL.2a 38H12
On to B7, for which, in experiment [8], the Kd came to 0.392 nM. In addition, the concentration for a half-maximal effect (EC50) in experiment [9] was 2.91 nM; in [11], 3.77 nM; in experiment [12] it was 0.17 nM. Moreover, in experiment [10], the “Notch Reporter Assay EC50” value was found to be 1.19 nM.
